# Data from the DeepSol protein solubility set.
# Test: soluble on expression in E. coli; label from the status in PepcDB or PDB records
row,Sequence,soluble on expression in E. coli
1,MGSDKIHHHHHHMTKDYVIEMRNITKIFGEFVANDHINLNVRRGEIHALLGENGAGKSTLMNMLAGLLEPTSGEIVINGQSVKIDSPSKAAQLGIGMVHQHFMLVDAFTVAENIILGSETTKGGVIDLKKAIAEIKELSAKYGLEVDPTAKVADISVGAQQRVEILKTLYRGADLLIFDEPTAVLTPAEIAELLKIMKALVEEGKSIILITHKLDEIRAVADSVTVIRRGKSIETVAVEGATNQDLAEWMVGRSVSFKTEKVEASPKEVILSIKDLVVNENRGIPAVKGLSLDVRAGEVVGIAGIDGNGQSELIQAITGLRKVKSGSITIKGEEVVGKTPRKITEMQVSHVPEDRHRDGLVLPMTVAENFALQTYYKEPISKNGILNYNIINEKARALMEEFDVRGASELVPIKALSGGNQQKAIIAREIDRNPDLFIVSQPTRGLDVGAIEYIRKRLIAERDKGKAVLVVSFELDEILDVSDRIAVIHDGVIHGIVEPAKTNKQELGVLMAGGHIEKGEEHA,not soluble
2,MGSDKIHHHHHHMTKKKIGIGFGTWAWGNKLVWDYKAETDDILLKKTFFDAINGGLDLIDSADSYGTGSLFGQSEKLIGDFLEELPKRKLKKVTIATKLAPFPWRIGRNGLDNAFQESNQRLKGNMTRVQLHWSTYRYAPWQEEQLLNGLGDLYEEGLIKEIGLSNTGPKRLNFLFQKLKKRGIKIKSIQMQLSLLTKPSLEDENIKIICDENEIEYLAYSPLGLGILTVPPNQSPKPTTFLRKSLYQRILPKTIELRTLLTHIGKKYSASQAEVALNWVRSHGAKPIVGIRNPNQAKDAISALNWSLTKSEKQKLDFCRNACLANMPLNPFTSP,not soluble
3,MGSDKIHHHHHHMTKMLRTYKFRIYPTREQEEKLAKHFGHTRFVYNFFLNYANIIYRVMERPTYYNEWASVLVKLKKTNKYSWLNEVNSQALQQSLKDLERAFKNFFKKQAGYPKFKKKKFSRQTFRIPQHIQLYIKEDNPKYGCIFVPKFKEGIKVRLHRKLPKDGKIKQATFIKTATNKYYAAIVFEVQDAEVQNTSTGILGIDLGIKDTITLSDGKKYKMPDLSKYERQIKRLHRRLSRKQRGSKNWEKARLCLAKLYEKIVNIKNDWLHKITHDLVSESQAGKIVVEDLNIKGMVQNHRLARHIHMQSWRRFLELLEYKAKRCGIEVIKANRYYPSSQMCSECGYINKEVKDLSVREWTCPVCGAHHDRDVNAAKNLVRYGLMLSIGREPSEFTPVDSALAAEPERGLRAITG,not soluble
4,MGSDKIHHHHHHMTKPPTLRPRFWETVPLDRMTPSEWEALCDGCGKCCLNKIEFEDTGEVAFTRIACRLLDGDSCRCSNYEIRRQFVPDCVQLSPATLPKIVYWMPRTCAYRLLHEGKSLPGWHYLLTGDRNSVHDAGASVQGWTVPEFEVAEEDWEDHIIEETP,not soluble
5,MGSDKIHHHHHHMTNEYEHLNAIQKIGLSILKEIIAICKRHDLTYYVYGGTLLGAIRHQGFIPWDDDVDIAMSRKDFEKLKQYQNEFPQYMFLDTIQQKGHQWTAAHVVDTRYKLEVGKGMKKATMSVWVDILIIDGVPNPGTFKYKIFSAAYLTARLLYKFSNFSNEVDLEKDRSAIETFFISFARITHIEKVINQHWAGCFIDWISRRYDLDKCEYGATLGGPQKMGETQPKYWFGKGKELLFEDIIVNGMEETENFLTKFYGPNYMTPPPLDKRNQHNVRLVEKIV,not soluble
6,MGSDKIHHHHHHMTNIGETIHQIRLSKGLTQQEVYSGIISRSFASRFESGANDIGASKLFAILDNLAISADELRFIHQNYQPSAYDQALWTIRHAYETLNFPALATWIREHRHSPHAYEQLIASYASILMLSYDHRSIGITTTTQPAFDHLRQAKTWTLQELKLVPVLIPIIASIDGLAALTPLTTRMAANCASYQTAWGDPFHVSNDLLDFYGSLFQTKLNFHDFQSAQNLKTKFTAIDSHQLNWDGRLSQQFWLGIWNLYFGDWQIGNQLLDEVSVLETHHHPRIDNTLFAIRNVRTKQAQTYRQSHQSHKHL,not soluble
7,MGSDKIHHHHHHMTNIILICVDQMRADTIRILGNPSIITPNLDALSLNSVVFSNHFSAGSPCSPARTSLLTGQYPATHGSITKNHRLKSTTNLALEIKKIGLSSTLFGFTDTVIPPYIQEKEGIMPGFDVQCYMNLHNIGLSGWAKELQKKGYHVLPNIMDIYRAEKAPYNYHDSDTAFLTDQVINYVASQGQEFGFIHLSYFRPHPPFIAPAPYSEYYPEVNCQKPEVDLETFLSMHPFHECLFHQLYKNTFNNLSYKQIESILTERFSRDKRAYYGLITELDYHLGRLITFLKDKGVYDETLLIFTSDHGELLGDKWLYEKGGYFDQSFHVPLLIKPPKALRSKQEGKIVDSFTSSIDLMPTILDIINAPIPESVEGLSLAELLSDGKNDSTRKDIIYEHYTTLPTKQLNRTLTIKDESFKYVYCSQFEHLLFDLKSDPDELKNLATESKHLNTVAYYQDRLRAEKLL,not soluble
8,MGSDKIHHHHHHMTPDSSPSSVDDPLFESGHRIFANKDLLKIGHVPEADRIVGRDEEISKLAKRLNGAVHGYSPENVMIYGKTGTGKSLVSKHVCQRAQNAAQDGVEIGTAYIDCAEDNTETQAISSLAAKLNDESSTGISVPHTGLSTSKYYKLLWKTLDAQFDSVIIILDEIDLMNDDSVLMKLSRAEEAGKIDCSVGVIAISNKIQYVDNVNERVKSSFQHKELFFKPYDANQLREIMFNREDAFQDGVLSEDVIPLSAAFAAQEHGDARKAIDILRHAGEVAYEAGAELVTEEHVRQAQQHAEKDRFRELVNGAPTQAKAALLALTELSVNSNDDAFLTSRVYDQYEHICNHLDMDILSVRRFRDILKEQAFLGVVEIEKINKGSAGGIHLQNRLIEDSQVVRETILEDSRMQDWTRE,not soluble
9,MGSDKIHHHHHHMTQCPLVSISCLTYNHAPYLRQCLDGFVMQITSFPIEILIYDDASGDGTQNIIEEYQKKYPDIIKPIYQTENQYSKGVKVGFVYNYSRAKGEYIAFCEGDDYWTDPYKLQKQIDFLECYSDYVICSHRYRICLKEEKVMNDEIKPIGDLSDGMSFDLSFLIRGGWLFQPLSVVYRKSALDLDTYSKYAIYIDVALFYAILKNGKGYCMPDVMGVYRIHEKGVWSGLDLNHQRIFSLKAREAIYDVEKTDEAAMFILSQFSRPMGRFLVVKECSMFMRITKILISHFGLRFVLRMWFDRLFLNKKLCVNEFYQIKDFCKRKKNG,not soluble
10,MGSDKIHHHHHHMTQDFSEIFAKYEALVADVDNVFKRVQEAHPECVTCEKGCSDCCYAVFDLSLVEAMYLNHRFGQKFSFGPERSVIVERADETDRKLVKLKRQAHRDVQNGRDAEEILQDMGRVRVRCPLLGETDGCELYEYRPITCRLYGIPTAIGGKAHSCGKSAFLAGKQYPTVNIDRIHERLAQLSLEIRDAVHSRFSELHTVLVPVSMALLTTYDDAYLGAGATAKGNE,not soluble
11,MGSDKIHHHHHHMTQLAPDSSIINAQACLSLDEAYEACRKETAQWAKTFYLGTMLLPSIKRRAIWAIYVWCRRTDELMDSAEAQTRPVSELANRLDQWEERTRAMFAGQVLDGLDAVMADTLERFPQSIQPYLDMIEGQRMDLNQHRYATFQQLELYCYRVAGTVGLMTQHVMGLDPAYTTAPWSSSPETSDAAIALGIANQLTNILRDVGEDRGRGRIYIPQEDLDRFGYSEADLMAGRLNSAWKDLMAFQLERAREWFARSEAGVRWLSQDARWPVWASLRLYRGILDSIERLDYDVFNNRAYVSRWMKLVDLPLSYLMAQAR,not soluble
12,MGSDKIHHHHHHMTQLLTKIRRKKIHKGLLLYRLFQQLPVQKNLVLFESFLGRGYSDNPKALYLTLQKQRPELELVWIFAKEPNAAVKAACPNWVLRNSPKYYYLMARAQYWIFNTRQPLSLKKRRETMYLQTWHGTPLKRLGLDMDEVHMPGTNTEQYKKNFSAQAKEWNYLLSPNLYSSAIFKRAFDFRGLLLETGYPRNDLLYAPDRQQQAGQIKQSLRLPPGKKVILYAPTWRDDEFVTKGQYRFNLKLDLKQIQSRLGDDYIVLLRMHYLIAEHLDLTAFDGFAYDVSAYGDIAELYLISDLLITDYSSVFFDYAHLNRPMLFFTYDLEKYASILRGFYFDFEAVVPGPLLKESDQVIDYIEDIATQSKQYEEKYTAFQERFCSLDDGKASQRVVDALFK,not soluble
13,MGSDKIHHHHHHMTQTPKPPLTIYLAAPRGFCAGVDRAIKIVEMALEKWGAPVFVRHEIVHNKYVVDDLKAKGAVFVEELSDCPDDRPVIFSAHGVPKSVPQAAAARQMVYVDATCPLVSKVHIEAQRHSDNGLQMVMIGHKGHPETIGTMGQLPDGEVLLVETVEDVATVEVRDPSRLAFVTQTTLSVDDTIEIVEALTTRFPAIVGPHKEDICYATTNRQEAVKAMAPKAEAMLVVGAPNSSNSKRLVEVGSRAGCAYSQLVQRAADIDWRALGDIKTLGITAGASAPEVLIEEVIQAFEDRFDVTRELVETAVENVEFKVPRVLRETA,not soluble
14,MGSDKIHHHHHHMTRGIYNAAMGMLVDMAKLDRIANDLANVDTAGYKQDREAFRAYLRREVFRQEPNPVESRTKKVPIGPLEYATVLDEVRTDLSQGPVEETDVPYHLAINGEGFFRIEFNGGEYYTRNGEFTVNSEGYIVTNYGGYLLDENGERVRFFDDFTVDEEGYVRDAYGNIVTRIGVYNLENPEKFGNTLFTGENPSPSENFRIMQGYVEKSNVDALKAMVDMISAMRHYELSQRAVTVNDELNGKLINSLASLK,not soluble
15,MGSDKIHHHHHHMTRKNKEQPAMSNNTSSNTNGKPQKRLIIITGDKGGVGKSTFARAIFQLYINKNLPCVAYEADLRNPQIERYFQKDYRPIIRYIDIFHRGGADDLLINLDESDCPITLLDLPAQSGCFFESYVKELAFFEVLKTEINCRVTMVSVISRVLDSINVLEKLRELCKDQVDYIVVKNLFHGEEEKFERYNDSSLRQNMLAEGLIELVMPDLFYKSYDFLDRHALTFNEGQTHQETNIVIKSRIKSWVAEFEAQIKPAFNFLGFDIQPDDCYYPAVVEKSKELRENEEKEKAKNQDANLPSEDIAA,not soluble
16,MGSDKIHHHHHHMTRTIVIDPVTRIEGHAKISVFLDDQGNAEAARFHVVEYRGFEKFCEGRPFTEMAGITARICGICPVSHLLAAAKTGDKILAVQIPPAAENLRRLINLAQIIQSHALSFFHLSSPDFLLGWDSDPARRNLFGLIAADPETARAGIRLRQFGQQLIEWLGGRKIHAAWAVPGGVRSLLSQEGMVWIRDRLPAELATVRATLDRFKRLLDREFREETAVFGDFPSLFMGLVADNGDWEHYGGHLRFVDSQGRIIADRLREDDYASFLGEAVEPWSYLKFPYYKPWGYPEGMYRVGPLARLNVCDRIGTAGAEAERQELRDRAGGTVTSSFLYHYARLVEILASLEKIAEMVEDPNLQTGFLRSQAGVNCLEAIGVSEAPRGTLFHHYRVDSHGKIERVNLIIATGQNNLAMNRTVTQIAQHYIRHGEVQESFLNRVEAGIRCFDPCLSCSTHTAGQMPLKIEIFDSRGELYQCLCRDL,not soluble
17,MGSDKIHHHHHHMTSICICDDEKQQRNMLNKIITREMDLWGYPYQIKEYSNGESLVYNLEHENYYIDIIFLDIELGKSNGVDIAKTIRKHSKDTIIIFVTGFSDYVFHGYDVGALNYILKPYKTEKICKVLKEALKKLEQWKENFITVQIGTNLCKINTKDILYFKSELRKLTVVTFDKTLEYYGKLNDMETVLPSNFIRTHQRYIVNLNHVDSITQTYAKVQNEKIPISRKKYQEVVGKFTRYMLES,not soluble
